Test results: patent US20140178373A1 (TORAY INDUSTRIES, published 2014)
Positions count from the first letter of the chain named.

Biological target: T1, CAPRIN-1 protein on the cell membrane surface of human cancer cell lines (human, UniProt Q14444 2-709)
T1 sequence (looked up): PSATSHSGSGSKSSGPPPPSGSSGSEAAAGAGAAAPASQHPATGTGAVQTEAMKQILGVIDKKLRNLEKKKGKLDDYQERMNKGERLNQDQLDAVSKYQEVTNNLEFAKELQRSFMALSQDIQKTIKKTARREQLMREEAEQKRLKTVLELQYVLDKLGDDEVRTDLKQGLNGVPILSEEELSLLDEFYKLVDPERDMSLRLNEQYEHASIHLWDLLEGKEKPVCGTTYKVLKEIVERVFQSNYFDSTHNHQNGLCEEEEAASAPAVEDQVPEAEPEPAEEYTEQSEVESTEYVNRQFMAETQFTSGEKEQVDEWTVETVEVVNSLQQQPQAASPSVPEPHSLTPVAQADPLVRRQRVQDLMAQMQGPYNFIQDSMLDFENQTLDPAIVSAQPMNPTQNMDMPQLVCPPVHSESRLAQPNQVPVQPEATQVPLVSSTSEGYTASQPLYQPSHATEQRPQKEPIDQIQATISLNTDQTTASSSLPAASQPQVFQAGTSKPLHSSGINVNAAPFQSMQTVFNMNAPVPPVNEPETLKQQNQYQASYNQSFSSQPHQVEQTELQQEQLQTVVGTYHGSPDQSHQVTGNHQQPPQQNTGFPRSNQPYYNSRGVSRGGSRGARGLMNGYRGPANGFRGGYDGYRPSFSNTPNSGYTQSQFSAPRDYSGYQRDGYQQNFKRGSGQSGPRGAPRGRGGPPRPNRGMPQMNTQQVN
Test: cell-based or functional assay

B1: human-mouse chimeric comparative antibody 1 (antibody)
heavy: not shown
light: DIQMTQSPASLSASVGETVTITCRASGNIHNYLAWYQQKQGKSPQLLVYNAKTLADGVPSRFSGSGSGTQYSLKINSLQPEDFGSYYCQHFWSTLTFGAGTKLELKRTVAAPSVFIFPPSDEQLKSGTASVVCLLNNFYPREAKVQWKVDNALQSGNSQESVTEQDSKDSTYSLSSTLTLSKADYEKHKVYACEVTHQGLSSPVTKSFNRGEC
cytotoxic activity (ADCC) against MCF7, HCT-116, MIAPaCa-2, Caki-2 and QG56: < 5%
cytotoxic activity (ADCC) against all other cancer cells (19 further cell lines): < 4%

B2: human-mouse chimeric comparative antibody 3 (antibody)
heavy: not shown
light: B1 light with M4L, A99G, L105I, R107Q
cytotoxic activity (ADCC) against MCF7, HCT-116, MIAPaCa-2, Caki-2 and QG56: < 5%
cytotoxic activity (ADCC) against all other cancer cells (19 further cell lines): < 4%

B3: human-mouse chimeric comparative antibody 4 (antibody, human IgG1, kappa, V domains shown)
VH: EVQLHQFGAELVKPGASVKISCKASGYTFTDYNMDWVKQSHGKSLEWIGDINPNYDSTSYNQKFKGKATLTVDKSSSTAYMELRSLTSEDTAVYYCARSRSYDYEGFAYWGQGTLVTVSA
VL: SGDRVSLSCRASQSISNYLHWYQQKSHESPRLLIKYASQSISGIPSRFSGSGSGTDFTLSINSVETEDFGMYFCQQSNSWPYTFGAGTKLEIKQ
cytotoxic activity (ADCC) against MCF7, HCT-116, MIAPaCa-2, Caki-2 and QG56: < 5%
cytotoxic activity (ADCC) against all other cancer cells (19 further cell lines): < 4%

B4: human-mouse chimeric comparative antibody 7 (antibody, human IgG1, kappa, V domains shown)
VH: LQESGAELARPGASVKLSCKASGYTFTSYWMQWVKQRPGQGLEWIGAIYPGDGDTRYTQKFKGKATLTADKSSSTAYMQLSSLASEDSAVYYCARGEYGNYFAYWGQGTTVTVSS
VL: TSDASLGERVTITCKASQDINSYLSWFQQKPGKSPKTLIYRANRLVDGVPSRFSGSGSGQDYSLTISSLEYEDMGIYYCLQYDEFPLTFGGGTKLEIKQ
cytotoxic activity (ADCC) against MCF7, HCT-116, MIAPaCa-2, Caki-2 and QG56: < 5%
cytotoxic activity (ADCC) against all other cancer cells (19 further cell lines): < 4%
